Assay results reported in the Human Domainome abundance scans (Beltran et al. 2025).
± gives the uncertainty stated by the source.

B1: Peroxisome proliferator-activated receptor delta, residues 71 to 145; numbered along this chain, Q03181 (parent)
chain: NMECRVCGDKASGFHYGVHACEGCKGFFRRTIRMKLEYEKCERSCKIQKKNRNKCQYCRFQKCLALGMSHNAIRF

Variants of: B1
Assay: abundance fitness (aPCA) (normalised: wild type 0, dead -1); higher = more abundant; growth selection in yeast, the domain comes from the species named
Settings: Homo sapiens

Variant	abundance fitness
NMECRVCGDKASGFHYGVHACEGCKGFFRRTIRMKLDYEKCERSCKIQKKNRNKCQYCRFQKCLALGMSHNAIRF [E37D]	-0.034 ± 0.059
NMECRVCGDKASGFHYGVHACEGCKGFFRRTIRMKLWYEKCERSCKIQKKNRNKCQYCRFQKCLALGMSHNAIRF [E37W]	-0.311 ± 0.056
NMECRVCGDKASGFHYGVHACEGCKGFFRRTIRMKLCYEKCERSCKIQKKNRNKCQYCRFQKCLALGMSHNAIRF [E37C]	0.011 ± 0.062
NMECRVCGDKASGFHYGVHACEGCKGFFRRTIRMKLMYEKCERSCKIQKKNRNKCQYCRFQKCLALGMSHNAIRF [E37M]	-0.164 ± 0.053
NMECRVCGDKASGFHYGVHACEGCKGFFRRTIRMKLLYEKCERSCKIQKKNRNKCQYCRFQKCLALGMSHNAIRF [E37L]	-0.16 ± 0.045
NMECRVCGDKASGFHYGVHACEGCKGFFRRTIRMKLVYEKCERSCKIQKKNRNKCQYCRFQKCLALGMSHNAIRF [E37V]	-0.042 ± 0.035
NMECRVCGDKASGFHYGVHACEGCKGFFRRTIRMKLTYEKCERSCKIQKKNRNKCQYCRFQKCLALGMSHNAIRF [E37T]	-0.121 ± 0.048
NMECRVCGDKASGFHYGVHACEGCKGFFRRTIRMKLGYEKCERSCKIQKKNRNKCQYCRFQKCLALGMSHNAIRF [E37G]	-0.319 ± 0.044
NMECRVCGDKASGFHYGVHACEGCKGFFRRTIRMKLKYEKCERSCKIQKKNRNKCQYCRFQKCLALGMSHNAIRF [E37K]	-0.038 ± 0.051
NMECRVCGDKASGFHYGVHACEGCKGFFRRTIRMKLRYEKCERSCKIQKKNRNKCQYCRFQKCLALGMSHNAIRF [E37R]	-0.069 ± 0.034
NMECRVCGDKASGFHYGVHACEGCKGFFRRTIRMKLAYEKCERSCKIQKKNRNKCQYCRFQKCLALGMSHNAIRF [E37A]	-0.13 ± 0.044
NMECRVCGDKASGFHYGVHACEGCKGFFRRTIRMKLFYEKCERSCKIQKKNRNKCQYCRFQKCLALGMSHNAIRF [E37F]	-0.227 ± 0.092
NMECRVCGDKASGFHYGVHACEGCKGFFRRTIRMKLNYEKCERSCKIQKKNRNKCQYCRFQKCLALGMSHNAIRF [E37N]	0.014 ± 0.084
NMECRVCGDKASGFHYGVHACEGCKGFFRRTIRMKLIYEKCERSCKIQKKNRNKCQYCRFQKCLALGMSHNAIRF [E37I]	-0.069 ± 0.089
NMECRVCGDKASGFHYGVHACEGCKGFFRRTIRMKLHYEKCERSCKIQKKNRNKCQYCRFQKCLALGMSHNAIRF [E37H]	-0.067 ± 0.083
NMECRVCGDKASGFHYGVHACEGCKGFFRRTIRMKLYYEKCERSCKIQKKNRNKCQYCRFQKCLALGMSHNAIRF [E37Y]	-0.326 ± 0.12
NMECRVCGDKASGFHYGVHACEGCKGFFRRTIRMKLPYEKCERSCKIQKKNRNKCQYCRFQKCLALGMSHNAIRF [E37P]	-0.559 ± 0.086
NMECRVCGDKASGFHYGVHACEGCKGFFRRTIRMKLEYKKCERSCKIQKKNRNKCQYCRFQKCLALGMSHNAIRF [E39K]	0.017 ± 0.057
NMECRVCGDKASGFHYGVHACEGCKGFFRRTIRMKLEYCKCERSCKIQKKNRNKCQYCRFQKCLALGMSHNAIRF [E39C]	-0.586 ± 0.13
NMECRVCGDKASGFHYGVHACEGCKGFFRRTIRMKLEYWKCERSCKIQKKNRNKCQYCRFQKCLALGMSHNAIRF [E39W]	-0.518 ± 0.064
NMECRVCGDKASGFHYGVHACEGCKGFFRRTIRMKLEYMKCERSCKIQKKNRNKCQYCRFQKCLALGMSHNAIRF [E39M]	-0.167 ± 0.057
NMECRVCGDKASGFHYGVHACEGCKGFFRRTIRMKLEYGKCERSCKIQKKNRNKCQYCRFQKCLALGMSHNAIRF [E39G]	-0.221 ± 0.033
NMECRVCGDKASGFHYGVHACEGCKGFFRRTIRMKLEYAKCERSCKIQKKNRNKCQYCRFQKCLALGMSHNAIRF [E39A]	-0.057 ± 0.036
NMECRVCGDKASGFHYGVHACEGCKGFFRRTIRMKLEYDKCERSCKIQKKNRNKCQYCRFQKCLALGMSHNAIRF [E39D]	-0.063 ± 0.055
NMECRVCGDKASGFHYGVHACEGCKGFFRRTIRMKLEYSKCERSCKIQKKNRNKCQYCRFQKCLALGMSHNAIRF [E39S]	-0.094 ± 0.037

Variant	abundance fitness
NMECRVCGDKASGFHYGVHACEGCKGFFRRTIRMKLEYLKCERSCKIQKKNRNKCQYCRFQKCLALGMSHNAIRF [E39L]	-0.229 ± 0.041
NMECRVCGDKASGFHYGVHACEGCKGFFRRTIRMKLEYNKCERSCKIQKKNRNKCQYCRFQKCLALGMSHNAIRF [E39N]	-0.222 ± 0.075
NMECRVCGDKASGFHYGVHACEGCKGFFRRTIRMKLEYTKCERSCKIQKKNRNKCQYCRFQKCLALGMSHNAIRF [E39T]	-0.052 ± 0.045
NMECRVCGDKASGFHYGVHACEGCKGFFRRTIRMKLEYVKCERSCKIQKKNRNKCQYCRFQKCLALGMSHNAIRF [E39V]	-0.061 ± 0.034
NMECRVCGDKASGFHYGVHACEGCKGFFRRTIRMKLEYYKCERSCKIQKKNRNKCQYCRFQKCLALGMSHNAIRF [E39Y]	-0.447 ± 0.1
NMECRVCGDKASGFHYGVHACEGCKGFFRRTIRMKLEYRKCERSCKIQKKNRNKCQYCRFQKCLALGMSHNAIRF [E39R]	-0.224 ± 0.032
NMECRVCGDKASGFHYGVHACEGCKGFFRRTIRMKLEYHKCERSCKIQKKNRNKCQYCRFQKCLALGMSHNAIRF [E39H]	-0.336 ± 0.1
NMECRVCGDKASGFHYGVHACEGCKGFFRRTIRMKLEYQKCERSCKIQKKNRNKCQYCRFQKCLALGMSHNAIRF [E39Q]	-0.082 ± 0.052
NMECRVCGDKASGFHYGVHACEGCKGFFRRTIRMKLEYIKCERSCKIQKKNRNKCQYCRFQKCLALGMSHNAIRF [E39I]	-0.191 ± 0.077
NMECRVCGDKASGFHYGVHACEGCKGFFRRTIRMKLEYPKCERSCKIQKKNRNKCQYCRFQKCLALGMSHNAIRF [E39P]	0.072 ± 0.04
NMECRVCGDKASGFHYGVHACEGCKGFFRRTIRMKLEYEFCERSCKIQKKNRNKCQYCRFQKCLALGMSHNAIRF [K40F]	0.02 ± 0.073
NMECRVCGDKASGFHYGVHACEGCKGFFRRTIRMKLEYEICERSCKIQKKNRNKCQYCRFQKCLALGMSHNAIRF [K40I]	0.061 ± 0.089
NMECRVCGDKASGFHYGVHACEGCKGFFRRTIRMKLEYEMCERSCKIQKKNRNKCQYCRFQKCLALGMSHNAIRF [K40M]	-0.09 ± 0.053
NMECRVCGDKASGFHYGVHACEGCKGFFRRTIRMKLEYEECERSCKIQKKNRNKCQYCRFQKCLALGMSHNAIRF [K40E]	-0.113 ± 0.046
NMECRVCGDKASGFHYGVHACEGCKGFFRRTIRMKLEYEGCERSCKIQKKNRNKCQYCRFQKCLALGMSHNAIRF [K40G]	-0.472 ± 0.045
NMECRVCGDKASGFHYGVHACEGCKGFFRRTIRMKLEYENCERSCKIQKKNRNKCQYCRFQKCLALGMSHNAIRF [K40N]	-0.225 ± 0.093
NMECRVCGDKASGFHYGVHACEGCKGFFRRTIRMKLEYELCERSCKIQKKNRNKCQYCRFQKCLALGMSHNAIRF [K40L]	-0.077 ± 0.037
NMECRVCGDKASGFHYGVHACEGCKGFFRRTIRMKLEYEDCERSCKIQKKNRNKCQYCRFQKCLALGMSHNAIRF [K40D]	-0.408 ± 0.1
NMECRVCGDKASGFHYGVHACEGCKGFFRRTIRMKLEYECCERSCKIQKKNRNKCQYCRFQKCLALGMSHNAIRF [K40C]	-0.216 ± 0.074
NMECRVCGDKASGFHYGVHACEGCKGFFRRTIRMKLEYEHCERSCKIQKKNRNKCQYCRFQKCLALGMSHNAIRF [K40H]	0.08 ± 0.096
NMECRVCGDKASGFHYGVHACEGCKGFFRRTIRMKLEKEKCERSCKIQKKNRNKCQYCRFQKCLALGMSHNAIRF [Y38K]	-0.776 ± 0.14
NMECRVCGDKASGFHYGVHACEGCKGFFRRTIRMKLEQEKCERSCKIQKKNRNKCQYCRFQKCLALGMSHNAIRF [Y38Q]	-1.02 ± 0.26
NMECRVCGDKASGFHYGVHACEGCKGFFRRTIRMKLESEKCERSCKIQKKNRNKCQYCRFQKCLALGMSHNAIRF [Y38S]	-0.868 ± 0.1
NMECRVCGDKASGFHYGVHACEGCKGFFRRTIRMKLEVEKCERSCKIQKKNRNKCQYCRFQKCLALGMSHNAIRF [Y38V]	-0.74 ± 0.091
NMECRVCGDKASGFHYGVHACEGCKGFFRRTIRMKLEPEKCERSCKIQKKNRNKCQYCRFQKCLALGMSHNAIRF [Y38P]	-0.758 ± 0.1

Variant	abundance fitness
NMECRVCGDKASGFHYGVHACEGCKGFFRRTIRMKLEHEKCERSCKIQKKNRNKCQYCRFQKCLALGMSHNAIRF [Y38H]	-0.718 ± 0.22
NMECRVCGDKASGFHYGVHACEGCKGFFRRTIRMKLEIEKCERSCKIQKKNRNKCQYCRFQKCLALGMSHNAIRF [Y38I]	-0.483 ± 0.12
NMECRVCGDKASGFHYGVHACEGCKGFFRRTIRMKLETEKCERSCKIQKKNRNKCQYCRFQKCLALGMSHNAIRF [Y38T]	-0.607 ± 0.099
NMECRVCGDKASGFHYGVHACEGCKGFFRRTIRMKLEMEKCERSCKIQKKNRNKCQYCRFQKCLALGMSHNAIRF [Y38M]	-0.631 ± 0.12
NMECRVCGDKASGFHYGVHACEGCKGFFRRTIRMKLENEKCERSCKIQKKNRNKCQYCRFQKCLALGMSHNAIRF [Y38N]	-0.72 ± 0.23
NMECRVCGDKASGFHYGVHACEGCKGFFRRTIRMKLEAEKCERSCKIQKKNRNKCQYCRFQKCLALGMSHNAIRF [Y38A]	-0.738 ± 0.079
NMECRVCGDKASGFHYGVHACEGCKGFFRRTIRMKLELEKCERSCKIQKKNRNKCQYCRFQKCLALGMSHNAIRF [Y38L]	-0.544 ± 0.077
NMECRVCGDKASGFHYGVHACEGCKGFFRRTIRMKLEWEKCERSCKIQKKNRNKCQYCRFQKCLALGMSHNAIRF [Y38W]	-0.397 ± 0.061
NMECRVCGDKASGFHYGVHACEGCKGFFRRTIRMKLEREKCERSCKIQKKNRNKCQYCRFQKCLALGMSHNAIRF [Y38R]	-0.846 ± 0.075
NMECRVCGDKASGFHYGVHACEGCKGFFRRTIRMKLEEEKCERSCKIQKKNRNKCQYCRFQKCLALGMSHNAIRF [Y38E]	-0.803 ± 0.11
NMECRVCGDKASGFHYGVHACEGCKGFFRRTIRMKLECEKCERSCKIQKKNRNKCQYCRFQKCLALGMSHNAIRF [Y38C]	-0.741 ± 0.15
NMECRVCGDKASGFHYGVHACEGCKGFFRRTIRMKQEYEKCERSCKIQKKNRNKCQYCRFQKCLALGMSHNAIRF [L36Q]	-0.222 ± 0.059
NMECRVCGDKASGFHYGVHACEGCKGFFRRTIRMKSEYEKCERSCKIQKKNRNKCQYCRFQKCLALGMSHNAIRF [L36S]	-0.235 ± 0.052
NMECRVCGDKASGFHYGVHACEGCKGFFRRTIRMKTEYEKCERSCKIQKKNRNKCQYCRFQKCLALGMSHNAIRF [L36T]	-0.139 ± 0.053
NMECRVCGDKASGFHYGVHACEGCKGFFRRTIRMKHEYEKCERSCKIQKKNRNKCQYCRFQKCLALGMSHNAIRF [L36H]	-0.151 ± 0.086
NMECRVCGDKASGFHYGVHACEGCKGFFRRTIRMKMEYEKCERSCKIQKKNRNKCQYCRFQKCLALGMSHNAIRF [L36M]	-0.05 ± 0.058
NMECRVCGDKASGFHYGVHACEGCKGFFRRTIRMKKEYEKCERSCKIQKKNRNKCQYCRFQKCLALGMSHNAIRF [L36K]	-0.165 ± 0.075
NMECRVCGDKASGFHYGVHACEGCKGFFRRTIRMKFEYEKCERSCKIQKKNRNKCQYCRFQKCLALGMSHNAIRF [L36F]	-0.162 ± 0.091
NMECRVCGDKASGFHYGVHACEGCKGFFRRTIRMKEEYEKCERSCKIQKKNRNKCQYCRFQKCLALGMSHNAIRF [L36E]	-0.109 ± 0.055
NMECRVCGDKASGFHYGVHACEGCKGFFRRTIRMKGEYEKCERSCKIQKKNRNKCQYCRFQKCLALGMSHNAIRF [L36G]	-0.224 ± 0.038
NMECRVCGDKASGFHYGVHACEGCKGFFRRTIRMKPEYEKCERSCKIQKKNRNKCQYCRFQKCLALGMSHNAIRF [L36P]	-0.374 ± 0.067
NMECRVCGDKASGFHYGVHACEGCKGFFRRTIRMKREYEKCERSCKIQKKNRNKCQYCRFQKCLALGMSHNAIRF [L36R]	-0.26 ± 0.04
NMECRVCGDKASGFHYGVHACEGCKGFFRRTIRMKYEYEKCERSCKIQKKNRNKCQYCRFQKCLALGMSHNAIRF [L36Y]	-0.047 ± 0.084
